Results reported in patent US20190201435, “MODULATORS OF VAULT RNAS FOR USE IN THE TREATMENT OF DISEASES” (European Molecular Biology Laboratory, published 2019).

Key:
[1] = target: MBP tag only (UniProt P0AEX9 P0AEX9:27-396); assay: EMSA; MBP tag control
[2] = target: p62 (SQSTM1, sequestosome 1) wild type (UniProt Q13501 Q13501:1-440); assay: EMSA; apparent Kd, TBE pH 8.3 gel; competed by cold vtRNA1-1; settings: tags: MBP; (radioactive in EMSA); terminal stem loop, single-stranded loops in central domain

B1: vtRNA1-1 (ssRNA)
RNA: GGCUGGCUUUAGCUCAGCGGUUACUUCGACAGUUCUUUAAUUGAAACAAGCAACCUGUCUGGGUUGUUCGAGACCCGCGGGCGCUCUCCAGUCCUUUU
B1 was tested, and the binding result [1] was “no binding” and the Kd [2] was about 60 nM.
